Results as given in patent US11466286B2, “Methods and compositions for conferring and/or enhancing herbicide tolerance using protoporphyrinogen oxidase or variant thereof” (FarmHannong Co., Ltd., priority 2016, dated 2022).

B1: CyPPO10 F360V: CyPPO10 (SEQ ID NO: 2) PPO variant (protein)
chain: MIEVDVAIVGGGLSGLSVAWRLQRSAPHYSGVLLEASDRLGGNITTQAAEGFVWELGPNSFAPTPALLQLIAEVGLHSELIRGDRHLPRYIYWRGELYPLEPTRPLALATSNLLSPWGKVRAALGALGFVPPYLGSGDESVDSFFRRHLGQEVAERLVAPFVSGVYAGDPQQLSAAAAFRRIAQLEKLGGSLIAGALRLRRQQPPQPKPPAQVQMRPGELGSFREGLAALPRAIAQQLKAPLHLQTPVEAITPEPKGGYLLRSGEQTWHARSVVLATPAYQTAELVAPFQPAIARALATIPYPTVACVVLAYPAGLGRSVRPGFGVLVPRGQGIRTLGTIWSSCLFPQRTPAGWQVFTSVIGGATDPDLASLREEAIVEQVQQDLTRLLDLPAAKARLLGMKVWRRAIPQYIVGYPQQWQQVTHALTQTPGLFLCSNYAEGVALGDRVEHGNRTAAAVAAYLAGGQS
modifications: Synthetic CyPPO10
B2: CyPPO10 N59T + F360V: CyPPO10 (SEQ ID NO: 2) PPO variant (protein)
chain: MIEVDVAIVGGGLSGLSVAWRLQRSAPHYSGVLLEASDRLGGNITTQAAEGFVWELGPTSFAPTPALLQLIAEVGLHSELIRGDRHLPRYIYWRGELYPLEPTRPLALATSNLLSPWGKVRAALGALGFVPPYLGSGDESVDSFFRRHLGQEVAERLVAPFVSGVYAGDPQQLSAAAAFRRIAQLEKLGGSLIAGALRLRRQQPPQPKPPAQVQMRPGELGSFREGLAALPRAIAQQLKAPLHLQTPVEAITPEPKGGYLLRSGEQTWHARSVVLATPAYQTAELVAPFQPAIARALATIPYPTVACVVLAYPAGLGRSVRPGFGVLVPRGQGIRTLGTIWSSCLFPQRTPAGWQVFTSVIGGATDPDLASLREEAIVEQVQQDLTRLLDLPAAKARLLGMKVWRRAIPQYIVGYPQQWQQVTHALTQTPGLFLCSNYAEGVALGDRVEHGNRTAAAVAAYLAGGQS
modifications: Synthetic CyPPO10
B3: CyPPO10 R89A + F360M: CyPPO10 (SEQ ID NO: 2) PPO variant (protein)
chain: MIEVDVAIVGGGLSGLSVAWRLQRSAPHYSGVLLEASDRLGGNITTQAAEGFVWELGPNSFAPTPALLQLIAEVGLHSELIRGDRHLPAYIYWRGELYPLEPTRPLALATSNLLSPWGKVRAALGALGFVPPYLGSGDESVDSFFRRHLGQEVAERLVAPFVSGVYAGDPQQLSAAAAFRRIAQLEKLGGSLIAGALRLRRQQPPQPKPPAQVQMRPGELGSFREGLAALPRAIAQQLKAPLHLQTPVEAITPEPKGGYLLRSGEQTWHARSVVLATPAYQTAELVAPFQPAIARALATIPYPTVACVVLAYPAGLGRSVRPGFGVLVPRGQGIRTLGTIWSSCLFPQRTPAGWQVFTSMIGGATDPDLASLREEAIVEQVQQDLTRLLDLPAAKARLLGMKVWRRAIPQYIVGYPQQWQQVTHALTQTPGLFLCSNYAEGVALGDRVEHGNRTAAAVAAYLAGGQS
modifications: Synthetic CyPPO10
B4: CyPPO10 V165S + F360M: CyPPO10 (SEQ ID NO: 2) PPO variant (protein)
chain: MIEVDVAIVGGGLSGLSVAWRLQRSAPHYSGVLLEASDRLGGNITTQAAEGFVWELGPNSFAPTPALLQLIAEVGLHSELIRGDRHLPRYIYWRGELYPLEPTRPLALATSNLLSPWGKVRAALGALGFVPPYLGSGDESVDSFFRRHLGQEVAERLVAPFVSGSYAGDPQQLSAAAAFRRIAQLEKLGGSLIAGALRLRRQQPPQPKPPAQVQMRPGELGSFREGLAALPRAIAQQLKAPLHLQTPVEAITPEPKGGYLLRSGEQTWHARSVVLATPAYQTAELVAPFQPAIARALATIPYPTVACVVLAYPAGLGRSVRPGFGVLVPRGQGIRTLGTIWSSCLFPQRTPAGWQVFTSMIGGATDPDLASLREEAIVEQVQQDLTRLLDLPAAKARLLGMKVWRRAIPQYIVGYPQQWQQVTHALTQTPGLFLCSNYAEGVALGDRVEHGNRTAAAVAAYLAGGQS
modifications: Synthetic CyPPO10
B5: CyPPO10 R89A + F360I: CyPPO10 (SEQ ID NO: 2) PPO variant (protein)
chain: MIEVDVAIVGGGLSGLSVAWRLQRSAPHYSGVLLEASDRLGGNITTQAAEGFVWELGPNSFAPTPALLQLIAEVGLHSELIRGDRHLPAYIYWRGELYPLEPTRPLALATSNLLSPWGKVRAALGALGFVPPYLGSGDESVDSFFRRHLGQEVAERLVAPFVSGVYAGDPQQLSAAAAFRRIAQLEKLGGSLIAGALRLRRQQPPQPKPPAQVQMRPGELGSFREGLAALPRAIAQQLKAPLHLQTPVEAITPEPKGGYLLRSGEQTWHARSVVLATPAYQTAELVAPFQPAIARALATIPYPTVACVVLAYPAGLGRSVRPGFGVLVPRGQGIRTLGTIWSSCLFPQRTPAGWQVFTSIIGGATDPDLASLREEAIVEQVQQDLTRLLDLPAAKARLLGMKVWRRAIPQYIVGYPQQWQQVTHALTQTPGLFLCSNYAEGVALGDRVEHGNRTAAAVAAYLAGGQS
modifications: Synthetic CyPPO10
B6: CyPPO10 R89A + F360L: CyPPO10 (SEQ ID NO: 2) PPO variant (protein)
chain: MIEVDVAIVGGGLSGLSVAWRLQRSAPHYSGVLLEASDRLGGNITTQAAEGFVWELGPNSFAPTPALLQLIAEVGLHSELIRGDRHLPAYIYWRGELYPLEPTRPLALATSNLLSPWGKVRAALGALGFVPPYLGSGDESVDSFFRRHLGQEVAERLVAPFVSGVYAGDPQQLSAAAAFRRIAQLEKLGGSLIAGALRLRRQQPPQPKPPAQVQMRPGELGSFREGLAALPRAIAQQLKAPLHLQTPVEAITPEPKGGYLLRSGEQTWHARSVVLATPAYQTAELVAPFQPAIARALATIPYPTVACVVLAYPAGLGRSVRPGFGVLVPRGQGIRTLGTIWSSCLFPQRTPAGWQVFTSLIGGATDPDLASLREEAIVEQVQQDLTRLLDLPAAKARLLGMKVWRRAIPQYIVGYPQQWQQVTHALTQTPGLFLCSNYAEGVALGDRVEHGNRTAAAVAAYLAGGQS
modifications: Synthetic CyPPO10
B7: CyPPO10 V165S + F360L: CyPPO10 (SEQ ID NO: 2) PPO variant (protein)
chain: MIEVDVAIVGGGLSGLSVAWRLQRSAPHYSGVLLEASDRLGGNITTQAAEGFVWELGPNSFAPTPALLQLIAEVGLHSELIRGDRHLPRYIYWRGELYPLEPTRPLALATSNLLSPWGKVRAALGALGFVPPYLGSGDESVDSFFRRHLGQEVAERLVAPFVSGSYAGDPQQLSAAAAFRRIAQLEKLGGSLIAGALRLRRQQPPQPKPPAQVQMRPGELGSFREGLAALPRAIAQQLKAPLHLQTPVEAITPEPKGGYLLRSGEQTWHARSVVLATPAYQTAELVAPFQPAIARALATIPYPTVACVVLAYPAGLGRSVRPGFGVLVPRGQGIRTLGTIWSSCLFPQRTPAGWQVFTSLIGGATDPDLASLREEAIVEQVQQDLTRLLDLPAAKARLLGMKVWRRAIPQYIVGYPQQWQQVTHALTQTPGLFLCSNYAEGVALGDRVEHGNRTAAAVAAYLAGGQS
modifications: Synthetic CyPPO10
B8: CyPPO10 V165S + F360I: CyPPO10 (SEQ ID NO: 2) PPO variant (protein)
chain: MIEVDVAIVGGGLSGLSVAWRLQRSAPHYSGVLLEASDRLGGNITTQAAEGFVWELGPNSFAPTPALLQLIAEVGLHSELIRGDRHLPRYIYWRGELYPLEPTRPLALATSNLLSPWGKVRAALGALGFVPPYLGSGDESVDSFFRRHLGQEVAERLVAPFVSGSYAGDPQQLSAAAAFRRIAQLEKLGGSLIAGALRLRRQQPPQPKPPAQVQMRPGELGSFREGLAALPRAIAQQLKAPLHLQTPVEAITPEPKGGYLLRSGEQTWHARSVVLATPAYQTAELVAPFQPAIARALATIPYPTVACVVLAYPAGLGRSVRPGFGVLVPRGQGIRTLGTIWSSCLFPQRTPAGWQVFTSIIGGATDPDLASLREEAIVEQVQQDLTRLLDLPAAKARLLGMKVWRRAIPQYIVGYPQQWQQVTHALTQTPGLFLCSNYAEGVALGDRVEHGNRTAAAVAAYLAGGQS
modifications: Synthetic CyPPO10

tested on: CyPPO10; assay: PPO enzyme activity and IC50 by herbicides, CyPPO10 wild type and variants (MBP-PPO fusion); assay type: biochemical, Thermosynechococcus elongatus BP-1; conditions: PPO enzyme activity of CyPPO10 protein, wild type = 100
Protocol: The enzyme activities of PPO protein and PPO protein variants were examined, and inhibition assay by PPO-inhibiting herbicides was conducted. It was confirmed that the PPO protein has low water-solubility, but in case of being expressed as a fusion protein with MBP (maltose binding protein) (MBP-PPO), the PPO protein is able to be stably expressed as water-soluble form. Therefore, the wild type and variant proteins which were expressed in the form of fusion protein with MBP were used in the present test (refer to FIG. 4).
In order to express wild type genes and mutant genes of CyPPO10 and CyPPO13 (refer to Example 1 and Example 4), those genes were introduced to pMAL-c2X vector (refer to FIG. 5) respectively, and then cloned to BL21 (DE3) E. coli (CodonPlus).
The enzyme activity of the purified wild type protein and variant proteins of CyPPO10 and CyPPO13 was measured by the following process.
At first, a substrate of PPO protein, Protoporphyrinogen IX was synthesized. This process was performed in the space where nitrogen gas is streamed. 6 mg of protoporphyrin IX was dissolved in 20% (v/v) EtOH 20 ml, and stirred under dark condition for 30 minutes. The obtained protoporphyrinogen IX solution was put into a 15 ml screw tube in an amount of 800 and flushed with nitrogen gas for 5 minutes. To this, 1 g of sodium amalgam was added and vigorous shaking was performed for 2 minutes. The lid was open to exhaust hydrogen gas in the tube. Thereafter, the lid was closed and incubated for 3 minutes. The […] was filtered using syringe and cellulose membrane filter. To 600 μl of the obtained […], 2M MOPS [3-(N-morpholino)propanesulfonic acid] was added in an amount of approximately 300 thereby adjusting pH to 8.0. To determine the enzyme activity of PPO protein, a reaction mixture was prepared with the following composition (based on 10 ml): 50 mM Tris-Cl (pH 8.0); 50 mM NaCl; 0.04% (v/v) Tween 20; 40 mM glucose (0.072 g); 5 units glucose oxidase (16.6 mg); and 10 units catalase (1 μl).
Two hundred microliters (200 μl) of reaction mixture containing a purified PPO protein were placed in 96 well plates, and preincubated for 30 min at room temperature to reduce the oxygen concentration by the reaction of glucose oxidase-catalase. The mineral oil was layered and then the reaction was initiated by adding the substrate, […], to a final concentration of 50 μM. The reaction proceeded at room temperature for 30 min and the fluorescence of protoporphyrin IX was measured using Microplate reader (Sense, Hidex) (excitation: 405 nm; emission: 633 nm). To calculate the PPO enzyme activity, protoporphyrinogen IX solution was kept open in the air to oxidize the solution (overnight). To this, 2.7N HCl was added, and the absorbance at 408 nm was measured. A standard curve was generated using standard protoporphyrin IX, and the PPO activity was measured by calibration of protoporphyrin IX using the standard curve of protoporphyrin IX.
The final concentration of each herbicide was as follows: […]

Point of comparison: B1, “Activity (%)” value 56%. Against it:
- B2 — higher, 62%
- B3 — higher, 67%
- B4 — higher, 78%
- B5 — lower, 38%
- B6 — lower, 30%
- B7 — higher, 59%
- B8 — higher, 63%
